Assay results as given in the supplement of paper PMC9112550, “Optimization of the antimicrobial peptide Bac7 by deep mutational scanning” (BMC Biology, 2022).

The sequences below were run on Escherichia coli TOP10 (assay: shrunken log2 fold change of peptide-encoding DNA abundance (4.5 h post-induction vs induction); higher = less antimicrobial activity (less host growth inhibition)). Details: time post-induction: 4.5 h; library: site-saturation at positions 5, 18, 19, 20.
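Note: peptides expressed intracellularly from a pBAD plasmid library in pooled LB shake-flask culture, induced with 0.3% L-arabinose, DNA abundance read by NGS, three biological replicates, DESeq2 with apeglm shrinkage.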

| Sequence | shrunken log2 fold change |
| --- | --- |
| RRIRFRPPRLPRPRPRPCVSPRP | -0.0323 |
| RRIRFRPPRLPRPRPRPCYCPRP | -0.064 |
| RRIRFRPPRLPRPRPRPCYNPRP | -0.255 |
| RRIRFRPPRLPRPRPRPCYRPRP | -0.573 |
| RRIRFRPPRLPRPRPRPCYYPRP | -0.401 |
| RRIRFRPPRLPRPRPRPDAEPRP | 0.373 |
| RRIRFRPPRLPRPRPRPDAIPRP | 0.041 |
| RRIRFRPPRLPRPRPRPDAPPRP | 0.421 |
| RRIRFRPPRLPRPRPRPDDAPRP | 0.133 |
| RRIRFRPPRLPRPRPRPDDEPRP | 0.066 |
| RRIRFRPPRLPRPRPRPDDQPRP | -0.151 |
| RRIRFRPPRLPRPRPRPDEIPRP | -0.022 |
| RRIRFRPPRLPRPRPRPDERPRP | -0.0426 |
| RRIRFRPPRLPRPRPRPDGGPRP | -0.537 |
| RRIRFRPPRLPRPRPRPDHEPRP | 0.193 |
| RRIRFRPPRLPRPRPRPDHPPRP | -0.593 |
| RRIRFRPPRLPRPRPRPDHSPRP | -0.0664 |
| RRIRFRPPRLPRPRPRPDIMPRP | -0.06 |
| RRIRFRPPRLPRPRPRPDKMPRP | 0.0125 |
| RRIRFRPPRLPRPRPRPDKQPRP | -0.0106 |
| RRIRFRPPRLPRPRPRPDKSPRP | 0.053 |
| RRIRFRPPRLPRPRPRPDRLPRP | 0.147 |
| RRIRFRPPRLPRPRPRPDRNPRP | -0.182 |
| RRIRFRPPRLPRPRPRPDRVPRP | 0.0813 |
| RRIRFRPPRLPRPRPRPDSVPRP | -0.54 |

| Sequence | shrunken log2 fold change |
| --- | --- |
| RRIRFRPPRLPRPRPRPDVTPRP | -0.302 |
| RRIRFRPPRLPRPRPRPDWEPRP | -0.169 |
| RRIRFRPPRLPRPRPRPDWIPRP | -0.114 |
| RRIRFRPPRLPRPRPRPDYIPRP | 0.209 |
| RRIRFRPPRLPRPRPRPDYVPRP | -0.00174 |
| RRIRFRPPRLPRPRPRPEAFPRP | 1.82 |
| RRIRFRPPRLPRPRPRPEDRPRP | 0.045 |
| RRIRFRPPRLPRPRPRPEDYPRP | 0.0145 |
| RRIRFRPPRLPRPRPRPEFGPRP | 0.0197 |
| RRIRFRPPRLPRPRPRPEGHPRP | 0.0933 |
| RRIRFRPPRLPRPRPRPEKNPRP | -0.0204 |
| RRIRFRPPRLPRPRPRPEKPPRP | -0.0143 |
| RRIRFRPPRLPRPRPRPEMIPRP | 0.169 |
| RRIRFRPPRLPRPRPRPEMYPRP | -0.00146 |
| RRIRFRPPRLPRPRPRPEPYPRP | 0.0129 |
| RRIRFRPPRLPRPRPRPEQCPRP | 0.285 |
| RRIRFRPPRLPRPRPRPERIPRP | -0.352 |
| RRIRFRPPRLPRPRPRPETGPRP | 0.0907 |
| RRIRFRPPRLPRPRPRPETQPRP | -0.0941 |
| RRIRFRPPRLPRPRPRPEYTPRP | -0.0548 |
| RRIRFRPPRLPRPRPRPEYWPRP | -0.245 |
| RRIRFRPPRLPRPRPRPFDGPRP | -0.251 |
| RRIRFRPPRLPRPRPRPFDTPRP | -0.486 |
| RRIRFRPPRLPRPRPRPFEYPRP | -0.281 |
| RRIRFRPPRLPRPRPRPFFEPRP | 0.0992 |

| Sequence | shrunken log2 fold change |
| --- | --- |
| RRIRFRPPRLPRPRPRPFGSPRP | -0.00247 |
| RRIRFRPPRLPRPRPRPFHRPRP | -0.0134 |
| RRIRFRPPRLPRPRPRPFHTPRP | -0.561 |
| RRIRFRPPRLPRPRPRPFIEPRP | -0.894 |
| RRIRFRPPRLPRPRPRPFKLPRP | -0.0106 |
| RRIRFRPPRLPRPRPRPFKMPRP | 1.77 |
| RRIRFRPPRLPRPRPRPFKVPRP | -0.327 |
| RRIRFRPPRLPRPRPRPFLTPRP | -0.172 |
| RRIRFRPPRLPRPRPRPFMEPRP | -0.728 |
| RRIRFRPPRLPRPRPRPFMPPRP | -0.469 |
| RRIRFRPPRLPRPRPRPFMVPRP | -0.654 |
| RRIRFRPPRLPRPRPRPFNRPRP | 0.0118 |
| RRIRFRPPRLPRPRPRPFPNPRP | -0.0354 |
| RRIRFRPPRLPRPRPRPFPQPRP | -0.173 |
| RRIRFRPPRLPRPRPRPFRMPRP | -0.173 |
| RRIRFRPPRLPRPRPRPFRQPRP | -0.00049 |
| RRIRFRPPRLPRPRPRPFTCPRP | -0.271 |
| RRIRFRPPRLPRPRPRPFVRPRP | -0.0733 |
| RRIRFRPPRLPRPRPRPFWRPRP | 0.366 |
| RRIRFRPPRLPRPRPRPGAAPRP | 0.517 |
| RRIRFRPPRLPRPRPRPGCPPRP | 0.00835 |
| RRIRFRPPRLPRPRPRPGCQPRP | -0.157 |
| RRIRFRPPRLPRPRPRPGDDPRP | 0.342 |
| RRIRFRPPRLPRPRPRPGDLPRP | -0.23 |
| RRIRFRPPRLPRPRPRPGEIPRP | -0.183 |

| Sequence | shrunken log2 fold change |
| --- | --- |
| RRIRFRPPRLPRPRPRPGGKPRP | 0.228 |
| RRIRFRPPRLPRPRPRPGHIPRP | -0.00306 |
| RRIRFRPPRLPRPRPRPGHKPRP | 0.0531 |
| RRIRFRPPRLPRPRPRPGKEPRP | -0.166 |
| RRIRFRPPRLPRPRPRPGKIPRP | -0.024 |
| RRIRFRPPRLPRPRPRPGKNPRP | 0.0341 |
| RRIRFRPPRLPRPRPRPGKRPRP | -0.0962 |
| RRIRFRPPRLPRPRPRPGLLPRP | 0.032 |
| RRIRFRPPRLPRPRPRPGLSPRP | -0.0429 |
| RRIRFRPPRLPRPRPRPGLWPRP | 0.526 |
| RRIRFRPPRLPRPRPRPGQFPRP | -0.148 |
| RRIRFRPPRLPRPRPRPGQGPRP | 0.249 |
| RRIRFRPPRLPRPRPRPGQQPRP | -0.0159 |
| RRIRFRPPRLPRPRPRPGRTPRP | 0.301 |
| RRIRFRPPRLPRPRPRPGSNPRP | -0.624 |
| RRIRFRPPRLPRPRPRPGTDPRP | -0.11 |
| RRIRFRPPRLPRPRPRPGTQPRP | -0.0219 |
| RRIRFRPPRLPRPRPRPGTVPRP | 0.0642 |
| RRIRFRPPRLPRPRPRPGVIPRP | -0.356 |
| RRIRFRPPRLPRPRPRPGYMPRP | -0.922 |
| RRIRFRPPRLPRPRPRPGYTPRP | -0.427 |
| RRIRFRPPRLPRPRPRPHAFPRP | -0.411 |
| RRIRFRPPRLPRPRPRPHAIPRP | 0.00598 |
| RRIRFRPPRLPRPRPRPHALPRP | -0.222 |
| RRIRFRPPRLPRPRPRPHCKPRP | -0.112 |

| Sequence | shrunken log2 fold change |
| --- | --- |
| RRIRFRPPRLPRPRPRPHCVPRP | -0.216 |
| RRIRFRPPRLPRPRPRPHCWPRP | -0.0304 |
| RRIRFRPPRLPRPRPRPHDVPRP | -0.00911 |
| RRIRFRPPRLPRPRPRPHEGPRP | 0.0417 |
| RRIRFRPPRLPRPRPRPHEHPRP | -0.135 |
| RRIRFRPPRLPRPRPRPHEYPRP | -0.264 |
| RRIRFRPPRLPRPRPRPHGWPRP | 0.309 |
| RRIRFRPPRLPRPRPRPHHAPRP | -0.291 |
| RRIRFRPPRLPRPRPRPHHNPRP | -0.754 |
| RRIRFRPPRLPRPRPRPHHSPRP | -0.883 |
| RRIRFRPPRLPRPRPRPHIFPRP | -0.021 |
| RRIRFRPPRLPRPRPRPHILPRP | -0.345 |
| RRIRFRPPRLPRPRPRPHMEPRP | -0.405 |
| RRIRFRPPRLPRPRPRPHMLPRP | 0.798 |
| RRIRFRPPRLPRPRPRPHMYPRP | -1.28 |
| RRIRFRPPRLPRPRPRPHPIPRP | -0.0674 |
| RRIRFRPPRLPRPRPRPHPMPRP | -0.367 |
| RRIRFRPPRLPRPRPRPHQRPRP | -0.183 |
| RRIRFRPPRLPRPRPRPHRCPRP | -0.0295 |
| RRIRFRPPRLPRPRPRPHRKPRP | 0.306 |
| RRIRFRPPRLPRPRPRPHTAPRP | -0.337 |
| RRIRFRPPRLPRPRPRPHVAPRP | 0.119 |
| RRIRFRPPRLPRPRPRPHVEPRP | -0.00526 |
| RRIRFRPPRLPRPRPRPHVNPRP | -0.297 |
| RRIRFRPPRLPRPRPRPHYDPRP | -0.397 |

| Sequence | shrunken log2 fold change |
| --- | --- |
| RRIRFRPPRLPRPRPRPHYIPRP | -0.0793 |
| RRIRFRPPRLPRPRPRPHYYPRP | -0.524 |
| RRIRFRPPRLPRPRPRPIACPRP | -0.0937 |
| RRIRFRPPRLPRPRPRPIAMPRP | 0.091 |
| RRIRFRPPRLPRPRPRPIAWPRP | -0.0725 |
| RRIRFRPPRLPRPRPRPIDEPRP | 0.121 |
| RRIRFRPPRLPRPRPRPIDHPRP | -0.0746 |
| RRIRFRPPRLPRPRPRPIDQPRP | -0.296 |
| RRIRFRPPRLPRPRPRPIELPRP | -0.537 |
| RRIRFRPPRLPRPRPRPIEMPRP | -0.245 |
| RRIRFRPPRLPRPRPRPIEVPRP | 0.0653 |
| RRIRFRPPRLPRPRPRPIFAPRP | 0.161 |
| RRIRFRPPRLPRPRPRPIGYPRP | -0.363 |
| RRIRFRPPRLPRPRPRPIHPPRP | -0.385 |
| RRIRFRPPRLPRPRPRPIHVPRP | -0.335 |
| RRIRFRPPRLPRPRPRPIITPRP | -0.5 |
| RRIRFRPPRLPRPRPRPIMIPRP | -0.113 |
| RRIRFRPPRLPRPRPRPIMNPRP | -0.515 |
| RRIRFRPPRLPRPRPRPIPCPRP | -0.256 |
| RRIRFRPPRLPRPRPRPIQQPRP | 0.056 |
| RRIRFRPPRLPRPRPRPIRGPRP | -0.0057 |
| RRIRFRPPRLPRPRPRPITAPRP | -0.286 |
| RRIRFRPPRLPRPRPRPITDPRP | 0.0437 |
| RRIRFRPPRLPRPRPRPITFPRP | -0.456 |
| RRIRFRPPRLPRPRPRPIVDPRP | -0.136 |
